The record followed here is PMC5663709 (Scientific Reports, 2017).

The target of experiment [1] is recombinant hemagglutinin (HA) trimer of H1N1 A/California/07/2009, ectodomain (Influenza A virus A/California/07/2009 …, UniProt C3W5X2). Kind of experiment: ELISA. Particulars: both partners purified. For orientation: ELISA stands for enzyme-linked immunosorbent assay.
Experiment [2] deals with purified monomeric HA of H1N1 CA/09 (thrombin-digested ectodomain) (Influenza A virus A/California/07/2009 …, UniProt C3W5X2). Kind of experiment: crystal structure. Particulars: both partners purified.

B1: S40 IgG (antibody, V domains shown)
VH: EVQLVESGGGLVQPGGSLRLSCAASGFTIGDFGIHWVRQAPGKGLEWVAGIWPFGGYTYYADSVKGRFTISADTSKNTAYLQMNSLRAEDTAVYYCARFVNWDGDYMDYWGQGTLVTVSS
VL: DIQMTQSPSSLSASVGDRVTITCRASQDVGFYVAWYQQKPGKAPKLLISWSSYLYSGVPSRFSGSGSGTDFTLTISSLQPEDFATYYCQQYYNYPLTFGQGTKVEIK
notes: copies: 2 + 2
Turning to B1, the binding result in experiment [1] was “binds”.

B2: S40 Fab (Fab, V domains shown)
VH: B1 VH
VL: B1 VL
As to B2, the binding result in experiment [2] is listed as “binds”.
